Where a chain is given by its changes, count along the chain named. Like-named read-outs stand apart in the source and are kept apart here. Ends that are not written are not given here.
B1: human Relaxin 2 (ligand)
chain 1: QLYSALANKCCHVGCTKRSLARFC
chain 2: SWMEEVIKLCGRELVRAQIAICGMSTWS
B2: scR8 (ligand)
chain: EQKLISEEDLQLYSALANKCCHVGCTKRSLARFCGGGSGGGSGGGSSWMEEVIKLCGRELVRAQIAICGMSTWS
B3: scR9 (ligand)
chain: EQKLISEEDLQLYSALANKCCHVGCTKRSLARFCGGGSGGGSGGGSGSWMEEVIKLCGRELVRAQIAICGMSTWS
B4: scR10 (ligand)
chain: EQKLISEEDLQLYSALANKCCHVGCTKRSLARFCGGGSGGGSGGGSGGSWMEEVIKLCGRELVRAQIAICGMSTWS
B5: scR11 (ligand)
chain: QLYSALANKCCHVGCTKRSLARFCGGGSGCGGSGSWMEEVIKLCGRELVRAQIAICGMSTWS
B6: scR12 (ligand)
chain: B5 chain with C30K
B7: scR14 (ligand)
chain: DVLAGLSSSCCKWGCSKSEISSLCGGGSGGGSGRAAPYGVRLCGREFIRAVIFTCGGSRW
modifications: ends and bridges not checked; cysteine pairing not given here
B8: scR15 (ligand)
chain: EQKLISEEDLDVLAGLSSSCCKWGCSKSEISSLCGGGSGGGSGRAAPYGVRLCGREFIRAVIFTCGGSRW
B9: scR17 (ligand)
chain: EQKLISEEDLDVLAGLSSSCCKWGCSKSEISSLCGGGSGGGSGSWMEEVIKLCGRELVRAQIAICGMSTWS
B10: human Relaxin 3 (ligand)
chain 1: DVLAGLSSSCCKWGCSKSEISSLC
chain 2: RAAPYGVRLCGREFIRAVIFTCGGSRW
B11: scR-Fc 8 (Fc fusion)
chain: QLYSALANKCCHVGCTKRSLARFCGGGSGGGSGSWMEEVIKLCGRELVRAQIAICGMSTWSGGSPTCPTCHKCPVPELLGGPSVFIFPPKPKDILLISQNAKVTCVVVDVSEEEPDVQFSWFVNNVEVHTAQTQPREEQYNSTFRVVSALPIQHQDWMSGKEFKCKVNNKALPSPIEKTISKPKGLVRKPQVYVMGPPTEQLTEQTVSLTCLTSGFLPNDIGVEWTSNGHIEKNYKNTEPVMDSDGSFFMYSKLNVERSRWDSRAPFVCSVVHEGLHNHHVEKSISRPPGKHHHHHH
B12: scR-Fc 9 (Fc fusion)
chain: QLYSALANKCCHVGCTKRSLARFCGGGSGGGSGSWMEEVIKLCGRELVRAQIAICGMSTWSGGSGGSPTCPTCHKCPVPELLGGPSVFIFPPKPKDILLISQNAKVTCVVVDVSEEEPDVQFSWFVNNVEVHTAQTQPREEQYNSTFRVVSALPIQHQDWMSGKEFKCKVNNKALPSPIEKTISKPKGLVRKPQVYVMGPPTEQLTEQTVSLTCLTSGFLPNDIGVEWTSNGHIEKNYKNTEPVMDSDGSFFMYSKLNVERSRWDSRAPFVCSVVHEGLHNHHVEKSISRPPGKHHHHHH
B13: scR-Fc 10 (Fc fusion)
chain: QLYSALANKCCHVGCTKRSLARFCGGGSGGGSGSWMEEVIKLCGRELVRAQIAICGMSTWSGGSGGSGGSPTCPTCHKCPVPELLGGPSVFIFPPKPKDILLISQNAKVTCVVVDVSEEEPDVQFSWFVNNVEVHTAQTQPREEQYNSTFRVVSALPIQHQDWMSGKEFKCKVNNKALPSPIEKTISKPKGLVRKPQVYVMGPPTEQLTEQTVSLTCLTSGFLPNDIGVEWTSNGHIEKNYKNTEPVMDSDGSFFMYSKLNVERSRWDSRAPFVCSVVHEGLHNHHVEKSISRPPGKHHHHHH
B14: scR-Fc 11 (Fc fusion)
chain: HHHHHHPTCPTCHKCPVPELLGGPSVFIFPPKPKDILLISQNAKVTCVVVDVSEEEPDVQFSWFVNNVEVHTAQTQPREEQYNSTFRVVSALPIQHQDWMSGKEFKCKVNNKALPSPIEKTISKPKGLVRKPQVYVMGPPTEQLTEQTVSLTCLTSGFLPNDIGVEWTSNGHIEKNYKNTEPVMDSDGSFFMYSKLNVERSRWDSRAPFVCSVVHEGLHNHHVEKSISRPPGKGGSPQLYSALANKCCHVGCTKRSLARFCGGGSGGGSGSWMEEVIKLCGRELVRAQIAICGMSTWS
B15: scR-Fc 12 (Fc fusion)
chain: HHHHHHPTCPTCHKCPVPELLGGPSVFIFPPKPKDILLISQNAKVTCVVVDVSEEEPDVQFSWFVNNVEVHTAQTQPREEQYNSTFRVVSALPIQHQDWMSGKEFKCKVNNKALPSPIEKTISKPKGLVRKPQVYVMGPPTEQLTEQTVSLTCLTSGFLPNDIGVEWTSNGHIEKNYKNTEPVMDSDGSFFMYSKLNVERSRWDSRAPFVCSVVHEGLHNHHVEKSISRPPGKGGSGGSPQLYSALANKCCHVGCTKRSLARFCGGGSGGGSGSWMEEVIKLCGRELVRAQIAICGMSTWS
B16: scR-Fc 13 (Fc fusion)
chain: HHHHHHPTCPTCHKCPVPELLGGPSVFIFPPKPKDILLISQNAKVTCVVVDVSEEEPDVQFSWFVNNVEVHTAQTQPREEQYNSTFRVVSALPIQHQDWMSGKEFKCKVNNKALPSPIEKTISKPKGLVRKPQVYVMGPPTEQLTEQTVSLTCLTSGFLPNDIGVEWTSNGHIEKNYKNTEPVMDSDGSFFMYSKLNVERSRWDSRAPFVCSVVHEGLHNHHVEKSISRPPGKGGSGGSGGSPQLYSALANKCCHVGCTKRSLARFCGGGSGGGSGSWMEEVIKLCGRELVRAQIAICGMSTWS
B17: scR-Fc 17 (Fc fusion)
chain: QLYSALANKCCHVGCTKRSLARFCGGGSGGGSGSWMEEVIKLCGRELVRAQIAICGMSTWSGSGSGSPTCPTCHKCPVPELLGGPSVFIFPPKPKDILLISQNAKVTCVVVDVSEEEPDVQFSWFVNNVEVHTAQTQPREEQYNSTFRVVSALPIQHQDWMSGKEFKCKVNNKALPSPIEKTISKPKGLVRKPQVYVMGPPTEQLTEQTVSLTCLTSGFLPNDIGVEWTSNGHIEKNYKNTEPVMDSDGSFFMYSKLNVERSRWDSRAPFVCSVVHEGLHNHHVEKSISRPPGK
B18: scR-Var1 (ligand)
chain: QLYSALANKCCHVGCTKRSLARFCGGGSGGGSGSWMEEVIKLCGRELVRAQIAICGMSTWSGGSGCG
B19: scR-Var2 (ligand)
chain: GCGSGGQLYSALANKCCHVGCTKRSLARFCGGGSGGGSGSWMEEVIKLCGRELVRAQIAICGMSTWS
B20: scR3 (ligand)
chain: EQKLISEEDLQLYSALANKCCHVGCTKRSLARFCGGGSGGGSWMEEVIKLCGRELVRAQIAICGMSTWSYPYDVPDYAHHHHHH
B21: scR4 (ligand)
chain: EQKLISEEDLQLYSALANKCCHVGCTKRSLARFCGGGSGGGSGSWMEEVIKLCGRELVRAQIAICGMSTWSYPYDVPDYAHHHHHH
B22: scR5 (ligand)
chain: EQKLISEEDLQLYSALANKCCHVGCTKRSLARFCGGGSGGGSGGGSWMEEVIKLCGRELVRAQIAICGMSTWSYPYDVPDYAHHHHHH
B23: scR7 (ligand)
chain: EQKLISEEDLQLYSALANKCCHVGCTKRSLARFCGGGSGGSWMEEVIKLCGRELVRAQIAICGMSTWS

Tests used:
[1] = target: T1, human LGR7/RXFP1 receptor (human, UniProt Q9HBX9 1-757); assay: cell-based or functional assay
T1 sequence (looked up): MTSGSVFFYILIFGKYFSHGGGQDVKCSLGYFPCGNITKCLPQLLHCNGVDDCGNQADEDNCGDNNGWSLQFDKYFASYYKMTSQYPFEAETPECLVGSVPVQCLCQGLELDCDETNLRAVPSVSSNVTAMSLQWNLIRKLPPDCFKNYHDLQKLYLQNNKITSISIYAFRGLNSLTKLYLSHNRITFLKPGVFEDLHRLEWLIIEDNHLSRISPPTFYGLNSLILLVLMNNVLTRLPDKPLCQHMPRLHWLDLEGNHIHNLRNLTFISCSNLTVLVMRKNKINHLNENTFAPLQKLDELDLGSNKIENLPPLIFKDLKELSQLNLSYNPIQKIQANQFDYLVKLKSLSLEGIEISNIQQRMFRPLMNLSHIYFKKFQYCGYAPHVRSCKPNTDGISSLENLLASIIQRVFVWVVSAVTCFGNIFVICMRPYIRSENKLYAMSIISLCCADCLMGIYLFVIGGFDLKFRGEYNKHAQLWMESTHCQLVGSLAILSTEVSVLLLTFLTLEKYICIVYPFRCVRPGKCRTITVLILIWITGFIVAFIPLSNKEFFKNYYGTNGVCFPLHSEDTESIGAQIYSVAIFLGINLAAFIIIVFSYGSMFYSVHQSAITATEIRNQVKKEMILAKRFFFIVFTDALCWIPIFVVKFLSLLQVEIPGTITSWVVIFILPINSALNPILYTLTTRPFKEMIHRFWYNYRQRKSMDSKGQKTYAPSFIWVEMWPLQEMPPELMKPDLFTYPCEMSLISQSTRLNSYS

[2] = target: T1, human LGR7/RXFP1 receptor; assay: cell-based or functional assay; remark: listed apart in the source

Row | Binder | EC50 (M), CRE-luciferase reporter in CHO-CRE-LGR7 cells [1] [M] | EC50 (M), CRE-luciferase reporter in CHO-CRE-LGR7 cells [2] [M]
1 | B1 | 2.6e-11 | 3.5e-11
2 | B2 | 2.4e-08 | 
3 | B3 | 1.1e-07 | 
4 | B4 | 4.4e-08 | 
5 | B5 | 2.5e-08 | 
6 | B6 | 3.6e-08 | 
7 | B7 | 5.9e-10 | 
8 | B8 | 6.2e-10 | 
9 | B9 | 1.3e-08 | 
10 | B10 | 2.3e-09 | 
11 | B11 |  | 7.2e-09
12 | B12 |  | 9.9e-09
13 | B13 |  | 4.8e-09
14 | B14 |  | 1.2e-09
15 | B15 |  | 9.5e-10
16 | B16 |  | 8.9e-10
17 | B17 |  | 2.5e-09
18 | B18 |  | 1.1e-07
19 | B19 |  | 4.2e-08
20 | B20 | 7.7e-11 | 
21 | B21 | 3.4e-11 | 
22 | B22 | 3.7e-11 | 
23 | B23 | 5.3e-08 | 

From patent US20140187491A1 (Bayer, published 2014)
